Reference: US12134634B2

Experiments:
[1] = biological target: NIR PKA biosensor (… SEQUENCE)
[2] = biological target: NIR JNK biosensor (… SEQUENCE)
[3] = biological target: miRFP670nano-DEVD-miRFP720 FRET-based reporter for caspase-3 activity (… SEQUENCE)

With Protein Kinase A (PKA) (enzyme) the FRET/miRFP670nano fluorescence ratio [1] was 33%.
Work on c-Jun N-terminal kinase (JNK) (enzyme) yielded an FRET/miRFP670nano fluorescence ratio [2] of 35%.
With “caspase-3 (from UniProt P42574) (enzyme)” the FRET/miRFP670nano fluorescence ratio detected at 725 nm/667 nm [3] was 1.65 fold.
